From the Human Domainome abundance scans (Beltran et al. 2025)

B1: Chromodomain-helicase-DNA-binding protein 4, residues 623 to 675; numbered along this chain, Q14839 (parent)
chain: MIHRILNHSVDKKGHVHYLIKWRDLPYDQASWESEDVEIQDYDLFKQSYWNHR

Variants of: B1
Assay: abundance fitness (aPCA) (normalised: wild type 0, dead -1); higher = more abundant; growth selection in yeast, the domain comes from the species named
Details: Homo sapiens

Abundance fitness of substitutions, site by site:
L19: P -0.74 | S -0.703 | D -0.71 | H -0.814 | I -0.772 | F -0.518 | G -0.604 | Y -0.282 | C -0.924 | N -0.262 | T -0.775 | W -0.866 | V -0.814 | A -0.892
A30: E -0.717 | L -0.813 | S -0.325 | T -0.653 | C -0.136 | Q -0.866 | G -0.977 | V -0.541 | I 0.111 | P -0.356 | F -0.586 | R -0.401 | W -0.465 | H -0.645 | N -0.347
K13: L -0.36 | M -0.162 | T -0.344 | V -0.263 | Q -0.133 | A -0.25 | D 0.098 | R -0.196 | N -0.123 | S -0.098 | H -0.062 | F -0.079 | C -0.267 | Y -0.214 | W -0.492 | G -0.335 | P -0.828 | E -0.066 | I -0.588
D11: T -0.518 | V -0.951 | Q -0.928 | P -0.913 | R -0.762 | W -0.694 | Y -0.792 | N -0.201 | S -0.305 | M -1.09
I20: C -0.686 | M -0.612 | F -0.946 | Y -0.825 | A -0.921 | N -0.838 | V -0.276 | S -0.778 | G -0.791 | R -0.722 | K -0.878 | W -0.633 | L -0.622 | T -0.885 | E -0.842 | Q -0.874
H15: Q -0.021 | N 0.081 | K 0.205 | F -0.344 | R 0.057 | A -0.126 | L -0.171 | C -0.171 | Y -0.409 | I 0.029 | V -0.122 | D -0.511 | E -0.123 | W -0.631 | M -0.134 | S -0.023
G14: I -0.656 | Y -0.634 | M -1.05 | D -0.727 | H -0.86 | A -0.919 | W -0.726 | P -0.714 | E -1.12 | N -0.451 | C -0.785 | T -1.08 | R -0.761 | K -0.404 | F -0.716 | S -0.768 | Q -0.714
L25: T -0.013 | Y -0.325 | E -0.363 | R 0.059 | A -0.256 | N -0.143 | S -0.125 | F -0.254 | Q -0.045 | H -0.195 | K 0.206 | I -0.344 | V -0.249 | P -0.398 | M 0.096
K21: V -0.463 | G -0.656 | S -0.406 | D -0.818 | Y -0.349 | F -0.537 | L -0.204 | I -0.581 | H -0.008 | C -0.424 | P -0.855 | A -0.01 | Q -0.106 | N -0.561 | W -0.201 | T -0.949
K12: P -0.083 | G -0.078 | V -0.171 | M 0 | W -0.19 | N -0.073 | L -0.239 | E -0.158 | Q -0.084 | A -0.01 | Y -0.184 | S -0.074 | D -0.103 | F -0.514 | I -0.136 | R -0.246 | H 0.01
W22: V -0.55 | F -0.825 | E -0.823 | Q -0.796 | P -0.959 | L -0.795 | G -0.88 | R -0.855 | I -0.797 | H -0.733 | K -0.891 | N -1.13 | A -0.889 | M -0.447 | T -0.871 | C -0.793 | S -0.806
Y27: L 0.156 | W -0.18 | P 0.018 | G -0.201 | I 0.21 | C -0.171 | R 0.04 | H 0.068 | K -0.013 | N 0.042 | D 0.133 | Q 0.197 | M -0.248 | A -0.003 | E -0.241 | F -0.118 | T 0.077 | V 0.097
H17: T 0.115 | P -0.91 | A -0.252 | Y -0.04 | C 0.031 | S -0.155 | W -0.302 | L -0.292 | K 0.094 | G -0.756 | V -0.485 | R -0.174 | N -0.052 | M -0.034 | D -0.43 | E -0.242 | F -0.312 | I -0.068 | Q -0.098
D24: F -0.423 | M -0.552 | R -0.487 | I -0.725 | S -0.294 | K -0.461 | A -0.335 | Q -0.439 | G -0.115 | N -0.077 | T -0.309 | E -0.014 | H -0.142 | W -0.353 | Y -0.53 | C -0.588 | L -0.535 | V -0.558
V16: H -0.288 | E -0.545 | G -0.757 | A -0.516 | L -0.11 | Y -0.016 | T -0.059 | W -0.715 | S -0.745 | K -0.088 | I -0.059 | C -0.22 | D -0.611 | M -0.053 | R -0.309 | P -0.59 | F -0.382 | Q -0.549
R23: M -0.265 | A -0.207 | H -0.164 | G -0.481 | S -0.236 | N -0.5 | E -0.279 | C -0.294 | K 0.021 | F -0.349 | Q -0.12 | D -0.591 | I -0.161 | L -0.219 | T -0.189 | Y -0.139 | W -0.183 | P -0.835
Q29: A -0.105 | S -0.27 | Y -0.493 | P -0.802 | N -0.48 | M -0.4 | K 0.101 | L -0.239 | C -0.186 | R -0.118 | D -0.345 | W -0.589 | T -0.702 | H -0.268 | G -0.608 | F -0.657 | E -0.262 | I -1.17
S31: A -0.817 | C -0.551
P26: G -0.019 | L -0.62 | K -0.59 | C -0.701 | M -0.761 | Y -0.339 | T -0.392 | V -0.762 | N -0.201 | R -0.533 | H -0.274 | Q -0.602 | A -0.751 | S -0.19 | W -0.662 | D -0.163 | E -0.562 | I -0.907 | F -0.749
D28: G -0.179 | Y -0.504 | I -0.664 | W -0.333 | R -0.169 | T -0.098 | N -0.028 | C -0.025 | H -0.139 | V -0.462 | F -0.553 | A 0.116 | K -0.124 | Q -0.354 | L -0.55 | M -0.685
Y18: H -0.736 | G -0.798 | F -0.43 | V -0.753 | N -0.754 | S -0.681 | W -0.787 | K -0.838 | R -1.05 | D -0.963 | Q -0.962 | C -0.59 | M -0.957 | L -0.86 | P -0.833 | A -0.688
